B1: HESX1 (parent)
chain: SKYENYFSASERLSLKRELSWYRG
B2: TRIM63 (parent)
chain: FRCPTCRHEVIMDRHGVYGLQRNL

Variants of: B1
Assay: protein stability index of a GFP-peptide fusion (GPS, HEK-293T) (PSI 1-6); higher = more stable
Conditions: c terminus: a fixed tail appended
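Note: lentivirally expressed fusions sorted by FACS into six bins by GFP to DsRed ratio, PSI derived from sequencing read proportions per bin multiplied by bin number.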

Protein stability index of substitutions, site by site:
S10: F 1.07; P 1.95; W 2.31; N 2.13; R 2.3; T 2.77; Y 1.67; G 1.56; D 2.19; Q 2.28; A 2.07; C 2.34; E 3.04
R12: E 2.77; M 1.06; K 1.93; C 2.4; L 2.03; D 2.32; Y 2.01; I 2.77; G 1.77; H 2.65; S 2; F 1.55
S1: C 2.04; L 2.06; N 1.74; K 1.4; A 1.71; Y 2.77; G 1.9; I 1.61
K16: P 3.04; V 2.16; F 1.37; L 2.21; R 1.42; A 2.32; H 1.78; N 2.17; I 1.8; S 1.9; Y 1.94
Y6: D 2.91; N 2.79; H 2.25; V 1.27; C 1.84; E 2.3; F 2.88; A 2.85; L 2.85; T 2.63; R 1.84; M 2.15; Q 1.96
R17: N 1.76; V 3.72; L 1.38; W 1.21; G 1.78; A 2.04; E 1.91; Q 2.29; C 1.61; Y 2.66
E18: N 2.06; I 1.75; H 1.77; P 2.07; C 1.43; G 1.87; K 1.99; S 1.38; D 1.82
L19: A 2.62; M 1.95; V 1.79; H 2.66; I 2.52; E 2.08; R 2.18; K 1.81; C 2.01; G 1.87; S 3.25; F 2.68; W 1.41
E4: M 2.02; G 2.13; T 2.98; D 2.45; N 1.71; I 1.26; L 2.23; A 1.61; H 1.17; P 2.06; Q 1.56
Y3: R 2.13; P 1.66; N 1.72; Q 1.61; L 1.97; F 1.48; D 2.29; C 1.79; G 2.75; V 3.67
F7: M 2.12; E 1.96; S 2.83; D 2.39; K 1.77; G 1.42; V 3.05; T 3.02; L 2.64; W 1.3; Y 2.63; I 1.98; H 2.72
L13: S 2.07; G 1.93; E 2.3; F 1.65; D 3.44; M 1.63; P 2.35
K2: R 1.64; A 2.09; H 1.8; Q 2.65; T 2.34; V 1.77; L 1.25; S 1.82; Y 1.81; C 2.23; P 1.96; F 1.57; D 2.19; G 2.31
S8: E 1.67; V 1.56; H 2.01; K 1.62; I 1.94; Q 2.26; M 1.61; C 2.03; L 1.55; N 1.68; F 2.35; A 1.94
A9: W 1.52; N 2.86; R 1.99; S 1.82; L 1.58; T 2.18; F 1.51; Q 2.01; C 2.45; Y 2.08; P 1.4; E 3.38; M 2.15
S14: G 1.33; R 2.03; C 2.07; N 2.25; L 1.02; D 3.59; Q 2.36; F 1.73; Y 1.92; P 2.96; H 1.99; M 1.74
S20: K 1.58; I 2.8; P 1.31; W 2.91; F 1.66; Q 1.94; V 1.24; Y 2.75; R 2.14
N5: D 1.71; P 1.63; I 2.23; F 1.03; K 1.42; C 1.51; H 1.9; Y 2.24; A 2.03
R23: W 1.83; P 2.18; N 1.94; F 2.16; H 2.3; A 1.85; D 2.1
W21: K 1.75; H 1.73; T 2.46; M 2.31; P 2.39; D 3.19; S 2.65; N 2.27; G 1.48; F 2.29; C 2.2; Y 2.4; I 3.04; V 2.2
Y22: R 1.9; T 1.9; A 1.82; C 2.27; S 2.22; Q 1.7; H 2.56; W 2.4; D 3.06
L15: V 2.06; F 1.61; A 2.72; H 2.07; D 2.65; I 1.86; Q 2.95; Y 2.13; S 2.41; P 2.57; W 2.95; M 1.72; E 2.22; C 1.94; N 2.33
E11: I 1.71; Y 1.75; Q 2.49; K 2.04; H 2.76; D 2.39; G 1.55; N 2; T 1.67
G24: P 2.46; H 2.11; I 1.81; N 1.66; Y 1.45; T 2.07; K 2.74; V 2.01; E 2.46; D 2.12; L 1.35

Variants of: B2
Assay: as above
Conditions: c terminus: a fixed tail appended

Protein stability index of substitutions, site by site:
R14: G 2.01; H 1.71; Y 1.95
L24: T 2.98; N 1.85; E 2.46
L20: K 1.51
R22: L 1.34; E 3.83
I11: V 1.88; S 2.52; Q 1.61
M12: D 1.99; I 3.22; G 2.8; A 2.35; F 2.18
T5: W 2.17; D 3.7
Y18: T 2.69
G19: K 2.07; E 1.86; Y 2.92; Q 2.46
R2: H 2.17
D13: E 2.44; S 2.13; H 1.83; W 2.09
H15: Q 3.54; P 2.66; N 2.13; I 2.19; C 2.32; S 2.44
V10: L 2.73; H 1.59; T 2.62
C6: D 2.62; P 2.89; Y 2.37; A 2.57; H 1.91; L 2.16
R7: W 2.12; V 2.93; T 2.35
H8: K 2.02; L 2.39; Q 1.91; R 1.89
C3: R 1.54; S 2.41
G16: Y 2.49; N 2.2; L 2.21; V 1.69
F1: A 1.16; L 3.27; H 2.39; T 3.56
N23: D 2.55; I 1.89
V17: R 1.53; N 2.28
Q21: F 1.27; K 2.02; V 1.59
E9: K 1.01; C 2.56
